{"source": "patent US20210070807A1", "about": "(MOREHOUSE SCHOOL OF MEDICINE, published 2021)", "binders": {"B1": {"name": "SMRwt-CPP peptide (peptide)", "peptide": "VGFPVAAVGFPVGRKKRRQRRRPPQ"}}, "molecular_target": "mortalin (UniProt P38646 47-679)", "sequence (P38646 47-679 limits assumed)": "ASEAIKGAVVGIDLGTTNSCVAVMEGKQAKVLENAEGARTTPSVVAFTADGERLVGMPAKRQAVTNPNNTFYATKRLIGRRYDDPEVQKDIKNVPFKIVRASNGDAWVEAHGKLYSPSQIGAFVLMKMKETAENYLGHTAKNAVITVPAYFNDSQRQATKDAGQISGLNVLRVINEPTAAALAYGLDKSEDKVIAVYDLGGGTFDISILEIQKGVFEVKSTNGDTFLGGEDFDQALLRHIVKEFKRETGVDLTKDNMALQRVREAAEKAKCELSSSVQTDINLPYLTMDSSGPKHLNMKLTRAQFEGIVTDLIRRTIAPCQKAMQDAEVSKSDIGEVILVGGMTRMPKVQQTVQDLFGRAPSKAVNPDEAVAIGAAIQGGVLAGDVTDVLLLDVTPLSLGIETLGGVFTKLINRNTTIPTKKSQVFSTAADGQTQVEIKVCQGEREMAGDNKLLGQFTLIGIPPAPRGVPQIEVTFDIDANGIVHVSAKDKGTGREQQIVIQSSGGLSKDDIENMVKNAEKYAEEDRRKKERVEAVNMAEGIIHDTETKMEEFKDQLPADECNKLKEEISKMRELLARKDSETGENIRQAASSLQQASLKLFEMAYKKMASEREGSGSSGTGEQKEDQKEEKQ", "experiment": "cell-based or functional assay"}
{"binder": "B1", "values": [{"measurement": "IC50 of proliferation, MTT assay, K562 cells, 24 hours", "value": 907, "unit": "nM/mL"}, {"measurement": "IC50 of proliferation, MTT assay, MCF-7 cells, 24 hours", "value": 180, "unit": "nM/mL"}, {"measurement": "IC50 of proliferation, MTT assay, MDA-MB-231 cells, 24 hours", "value": 476, "unit": "nM/mL"}]}
